{
  "source": "the nanobody polyreactivity screen of Harvey et al. (2022)",
  "data": [
    {"assay": "yeast display, Sf9 membrane polyspecificity reagent, FACS + sequencing; frameworks hold sequencing errors", "how_it_was_run": "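A nanobody's polyreactivity label depends on the gate it was sorted from. Yeast display cells were stained with 10% biotinylated, detergent-solubilized Sf9 membrane reagent for 1 hour at 4 °C, enriched on streptavidin microbeads and sorted by FACS. The low and high (top ~1%) gates were set on anti-HA fluorescence for expression and streptavidin fluorescence for reagent binding.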", "values": [
      {"sequence": "QVQLVESGGGLVQAGGSLRLSCAASGFTFGYNDMGWYRQATGKVRELVAGIRSGDDTNYADSVKGRFTISRDNAKNTVYLQMNSLKPEDTAVYYCAVGYGDYLYYDYDYWGQGTQVTVSS", "polyreactivity (PSR sort gate)": "low polyreactivity"},
      {"sequence": "QVQLVESGGGLVQAGGSLRLSCAASGFTFGYNTMGWYRQAPGNERELGAAISWRGGSTFYADSVKGRFTISRDNAKNTVYLQMNSLKPEDTAVYYCNVLRLDQRYPSLRDDWGQGTQVTVSS", "polyreactivity (PSR sort gate)": "high polyreactivity"},
      {"sequence": "QVQLVESGGGLVQAGGSLRLSCAASGFTFGYYAMGWYRQAPGKERELVAAINWSGVNTNYADSVKGRFTISRDNAKNTVYLQMNSLKPEDTAVYYCAADAGYDGYGYWGQGTQVTVSS", "polyreactivity (PSR sort gate)": "low polyreactivity"},
      {"sequence": "QVQLVESGGGLVQAGGSLRLSCAASGFTFGYYAMGWYRQAPGKERELVAAISSSGGRTYYADSVKGRFTISRDNAKNTVYLQMNSMKPEDTAVYYCAAVYIRYPIQYSLLRYDYWGQGTQVTVSA", "polyreactivity (PSR sort gate)": "high polyreactivity"},
      {"sequence": "QVQLVESGGGLVQAGGSLRLSCAASGFTFGYYAMGWYRQAPGKERELVAAITFRGGRTYYADSVKGRFTISRDNAKNTVYLQMNSLKPEDTAVYYCAALSLVRYYHNANYYPYYYWGQGTQVTVSS", "polyreactivity (PSR sort gate)": "high polyreactivity"},
      {"sequence": "QVQLVESGGGLVQAGGSLRLSCAASGFTFGYYAMGWYRQAPGKERELVATITSSGASTYADSVKGRFTISRDNAKNTVYLQMNSLKPEDTAVYYCAADRLPSYWSWYGYDYWGQGTQVTVSS", "polyreactivity (PSR sort gate)": "high polyreactivity"},
      {"sequence": "QVQLVESGGGLVQAGGSLRLSCAASGFTFGYYAMGWYRQAPGKEREVVAAIRGGGRTNYADSVKGRFTISRDNAKITVYLQMNSLKPEDTAVYYCNADRLRTLRGDDWGQGSQVTVSS", "polyreactivity (PSR sort gate)": "low polyreactivity"},
      {"sequence": "QVQLVESGGGLVQAGGSLRLSCAASGFTFGYYDMGWYRQAPGKERELVAAISSSDVSTYADSVKGRFTISRDNAKNTVYLQMNSLKPEDTAVYYCAADFWYSYYYWGQGTQVTVSS", "polyreactivity (PSR sort gate)": "high polyreactivity"},
      {"sequence": "QVQLVESGGGLVQAGGSLRLSCAASGFTFGYYGMGSYRQAPGKERELVAAISWSGGSTYYADSVKGRFTISRDNAKNTVYLQMNSLKPEDTAVYYCAASAGYASNYWGQGTQVTVSS", "polyreactivity (PSR sort gate)": "low polyreactivity"},
      {"sequence": "QVQLVESGGGLVQAGGSLRLSCAASGFTFGYYTMGWYRQAPGKERELVAAISWSGGSTYYADSVKGRFTISRDNAKNTVYLQMNSLKPEDTAVYYCAAYRYGYDYWGQGTQVTVSS", "polyreactivity (PSR sort gate)": "high polyreactivity"},
      {"sequence": "QVQLVESGGGLVQAGGSLRLSCAASGFTFHHYAMGWYRQAPGKERELVAAITRSGGTTYYADSVKGRFTISRDNAKNTVYLQMNRLKPEDTAVYYCAADTGAKRYYRYDYWGQGTQVTVSS", "polyreactivity (PSR sort gate)": "high polyreactivity"},
      {"sequence": "QVQLVESGGGLVQAGGSLRLSCAASGFTFHKNAMGWYRQAPGKERELVAAITYRGGSTSYADSVKGRFTISRDNAKNTFYLQMNSLKPEDTAVYYCAAELRPYITYDGPRKKFYYWGQGTQVTVSS", "polyreactivity (PSR sort gate)": "high polyreactivity"},
      {"sequence": "QVQLVESGGGLVQAGGSLRLSCAASGFTFHKYAMGWYRQAPGKERELVAAISWSGDRTYYADSVKGRFTISRDNAKNTVYLQMNSLKPEDTAVYYCAAATRYSFYIKYDYWGQGTQVTVSS", "polyreactivity (PSR sort gate)": "high polyreactivity"},
      {"sequence": "QVQLVESGGGLVQAGGSLRLSCAASGFTFHNNVMGWYRQAPGKEMELVATISKSGGSTYYADSVKGRFTISRDNAKNTVYLQMNSLKPEDTAVYYCARSYRDYGRYGYWGQGTQVTVSS", "polyreactivity (PSR sort gate)": "high polyreactivity"},
      {"sequence": "QVQLVESGGGLVQAGGSLRLSCAASGFTFHYNAMGWYRQAPRKEREFVAAISGSGDRTYYADSVKGRFTISRDNAKNTVYLQMNSLKPEDTAVYYCATSVRQNYFYSYDYWGQGTQVTVSS", "polyreactivity (PSR sort gate)": "high polyreactivity"},
      {"sequence": "QVQLVESGGGLVQAGGSLRLSCAASGFTFHYYTMGWYRQAPGKERELVASINYSGGRTYYADSVKGRFTISRDNAKNTVYLQMNSLKPEDTAVYYCNARYKSTYYYWGLGTQVTVSS", "polyreactivity (PSR sort gate)": "high polyreactivity"},
      {"sequence": "QVQLVESGGGLVQAGGSLRLSCAASGFTFIRNAMGWYRQAPVKERELVAAISKSGGTTYYADSVKGRFTISRDNAKNTVYLQMNSLKPEDTAVYYCNKGIGRSDPDYRYYYWGQGTQVTVSS", "polyreactivity (PSR sort gate)": "high polyreactivity"},
      {"sequence": "QVQLVESGGGLVQAGGSLRLSCAASGFTFIRNGMGWYRQAPGKERELVAAINSRGGNTYYADSVKGRFTISRDNAKNTVYLQMNSLKPEDTAVYYCNRVVQRWSTQYGYWGQGTQVTVSS", "polyreactivity (PSR sort gate)": "high polyreactivity"},
      {"sequence": "QVQLVESGGGLVQAGGSLRLSCAASGFTFIRYAMGWYRQAPGKERELVASISNRGGRTYYADSVKGRFTISRDNAKNTVYLQMNSLKPEDTAVYYCAAGYSTYRAVWTDNNYWGQGTQVTVSS", "polyreactivity (PSR sort gate)": "high polyreactivity"},
      {"sequence": "QVQLVESGGGLVQAGGSLRLSCAASGFTFISNAMGWYRQAPGKERELVAAISSSGGRTYYADSVKGRFTISRDNAKNTVYLQMNRLKPEDTAVYYCNAVRSLLYSRKIEYDYWGQGTQVTVSS", "polyreactivity (PSR sort gate)": "low polyreactivity"},
      {"sequence": "QVQLVESGGGLVQAGGSLRLSCAASGFTFISYAMGWYRQAPGKERELVADISSSGDSTSYADSVKGRFTISRDNAKNTVYLQMNSLKPEDTAVYYCAAGDGYVYGEYDYWGQGTQVTVSS", "polyreactivity (PSR sort gate)": "low polyreactivity"},
      {"sequence": "QVQLVESGGGLVQAGGSLRLSCAASGFTFITNAMGWYRQAPGNERELVASISIGGSTNYADSVKGRFTISRDNAKNTVYLQMNSLKPEDTAVYYCAARVYRRLFLPGRFGRPLGYWGQGTQVTVSS", "polyreactivity (PSR sort gate)": "high polyreactivity"},
      {"sequence": "QVQLVESGGGLVQAGGSLRLSCAASGFTFIYYAMGRYRQAPRKERELVAAISSGGSTYYADSVKGRFTISRDNAKNTVYLQMNSLKPEDTAVYYCAAGYWWPVQYYSRYNYWGQGTQVTVSS", "polyreactivity (PSR sort gate)": "high polyreactivity"},
      {"sequence": "QVQLVESGGGLVQAGGSLRLSCAASGFTFIYYAMGWYRQAPGKERELVAAISRVDSTYYADSVKGRFTISSDNAKNTIYLQMNRLKPEDTAVYYFAAASQVRRDHGYWGQGTQVTVSS", "polyreactivity (PSR sort gate)": "low polyreactivity"},
      {"sequence": "QVQLVESGGGLVQAGGSLRLSCAASGFTFKAYAMGWYRQAPGKERELVAAITKSGGRTFYADSVKGRFTISRDTAKNTVYFQMNSLKPEDTAVYYCAASYTVYYWGQGTQVTVSS", "polyreactivity (PSR sort gate)": "high polyreactivity"},
      {"sequence": "QVQLVESGGGLVQAGGSLRLSCAASGFTFKAYAMGWYRQAPGKERELVAAITRSGGRTYYADSVKGRFTISRDNAKNTVYLQMNSLKPEDTAVYYCARDYTRYAYDHWGQGTQVTVSS", "polyreactivity (PSR sort gate)": "high polyreactivity"},
      {"sequence": "QVQLVESGGGLVQAGGSLRLSCAASGFTFKFNAMGWYRQAPGKERELVAAISYSGGSTYYADSVKGRFTISRDNAKNTVYLQMNSLKPEDTAVYYCAARAYWYGASYYYWGQGPQVTVSS", "polyreactivity (PSR sort gate)": "high polyreactivity"},
      {"sequence": "QVQLVESGGGLVQAGGSLRLSCAASGFTFKFNTMGWYRQAPGKERELVAANSWRGGDTSYADSVKGRFTISRENAKNTVFLQMYSLKPEDNAVYYCAARSTSIGQRSLHYGYWGQGTQVTVSS", "polyreactivity (PSR sort gate)": "low polyreactivity"},
      {"sequence": "QVQLVESGGGLVQAGGSLRLSCAASGFTFKGNAMGWYIQAPGKERELVATITQSAGYTYYADSVKGRFTISRDNAKNTVYLQLNSLKPEDTAVYYCNADPITLYYYSWYNYWGQGTQVTVSS", "polyreactivity (PSR sort gate)": "low polyreactivity"},
      {"sequence": "QVQLVESGGGLVQAGGSLRLSCAASGFTFKGYAMGWYRQAPGKERELVAAITRGGSTYYADSVKGRFTISRDNAKNTVYLLMNSLKPEDTAVYYCAARGRGHGTTPNDYWGQGTQVTVSS", "polyreactivity (PSR sort gate)": "high polyreactivity"},
      {"sequence": "QVQLVESGGGLVQAGGSLRLSCAASGFTFKKNAMGWYRQATGKERELVAAIRSGTSTKYADSVKGRFTISRDNAKNTVYLQMNSLKPEDTAVYYCAAEEPEYLATWRNRRYDYWGQGTQVTVSS", "polyreactivity (PSR sort gate)": "low polyreactivity"},
      {"sequence": "QVQLVESGGGLVQAGGSLRLSCAASGFTFKSYAMGWSRQAPGKERELVAAISRGGSTYYADSVKGRFTISRDNAKNTVYLQMNSLKPEDTAVYYCNKTRYSRSYYEYDYWGQGTQVTVSS", "polyreactivity (PSR sort gate)": "low polyreactivity"},
      {"sequence": "QVQLVESGGGLVQAGGSLRLSCAASGFTFKYNAMGWYRQAPGKERELVAGITLRGGSTYYADSVKGRFTISRDNAKNTVYLQMNSLKPEDTAVYYCGAAASNWREYWYWGQGTQVTVSS", "polyreactivity (PSR sort gate)": "low polyreactivity"},
      {"sequence": "QVQLVESGGGLVQAGGSLRLSCAASGFTFKYNAMGWYRQAPGKERELVASISRGSSTNYADSVKGRFTISRDNAKNTVYLQMNSLKPEDTAVYYCAKGYRPWGSYDYWGQGTQVTVSS", "polyreactivity (PSR sort gate)": "high polyreactivity"},
      {"sequence": "QVQLVESGGGLVQAGGSLRLSCAASGFTFKYNVMGWYRQAPGKERELVAAISKRGGNTYYADSVKGRFTISRDNAKNTVYLQMNSLKPEDTAVYYCAADPTSPETSGQGYDYWGQGTQVTVSS", "polyreactivity (PSR sort gate)": "high polyreactivity"},
      {"sequence": "QVQLVESGGGLVQAGGSLRLSCAASGFTFKYYAMGWYRPAPGKERELVAAIRRSAGSTNYADSVKGRFTISRDNAKNTVYLQMNSLKPEDTAVYYCNTVGTRQPMDYWGQGTQVTVSS", "polyreactivity (PSR sort gate)": "high polyreactivity"},
      {"sequence": "QVQLVESGGGLVQAGGSLRLSCAASGFTFKYYVMGWSRQAPGKERELVASLSKRGGSTRYADSVKGRFTISRDNAKTTFYLQMHSLKPEDTAVYYCAAAFVRPPPYVGYSRFDYWGQGTQVTLSS", "polyreactivity (PSR sort gate)": "high polyreactivity"},
      {"sequence": "QVQLVESGGGLVQAGGSLRLSCAASGFTFKYYVMGWYRQAPGKAREWVAAITNGGSTYYADSVKGRFTISRDNAKNTVYLQMNSLKPEDTAVYYCAASAYYHWLFDYRGQGTQVTVSS", "polyreactivity (PSR sort gate)": "high polyreactivity"},
      {"sequence": "QVQLVESGGGLVQAGGSLRLSCAASGFTFKYYVMGWYRQAPGKERELVASISKRGGSRNYADSVKGRFTISRDNAKNTVYLQMNSLKPEDTAVYYCAADYPATSGPRHYYWGQGTQVTVSS", "polyreactivity (PSR sort gate)": "high polyreactivity"},
      {"sequence": "QVQLVESGGGLVQAGGSLRLSCAASGFTFLDSYAMGWYRQAPGKERELVAGITWSVGTTYYADSVKGRFTISRDNAKNTVYLHMNSLKPEDTAVYYCNAVIDVHDPEYDYWGQGTQVTVSS", "polyreactivity (PSR sort gate)": "low polyreactivity"},
      {"sequence": "QVQLVESGGGLVQAGGSLRLSCAASGFTFLGNAMGWYRQAPGKERELVATITSGGNTKYADSVKGRFTISRDNAKNTVYFQINSLKPEDTAVYYFARDRKRQADDICEFDYWGQGSQVTVSS", "polyreactivity (PSR sort gate)": "low polyreactivity"}
    ]}
  ]
}
